Data reported in paper PMC5264606, “Clusterin: full-length protein and one of its chains show opposing effects on cellular lipid accumulation” (Scientific Reports, 2017).

Tests used:
[1] = target: the molecule itself; experiment: AUC; sedimentation velocity; 0.5 mg/ml in 20 mM phosphate buffer pH 7.4, 18,000 rpm, 20 °C, An50Ti rotor; SEDFIT (Lamm equation); self-association into large oligomers
[2] = target: the molecule itself; experiment: dynamic light scattering; 1 mg/ml in PBS pH 7.4, filtered through 0.22 μm, 25 °C; hydrodynamic radius; self-association

Row | Protein | stoichiometry N [1] | binding result [2]
1 | α-chain of human clusterin (α-Clu), recombinant (domain or fragment, UniProt P10909 23-227, looked up, The printed primers encode M-DQTVSD... at the start and ...RIVR-stop at the end; Printed theoretical subunit mass: 24 kDa; The NdeI site of the forward primer adds an initiator Met before D23; Not glycosylated (bacterial). cDNA came from IMR32 human neuroblastoma cells; also called α-clusterin) DQTVSDNELQEMSNQGSKYVNKEIQNAVNGVKQIKTLIEKTNEERKTLLSNLEEAKKKKEDALNETRESETKLKELPGVCNETMMALWEECKPCLKQTCMKFYARVCRSGSGLVGRQLEEFLNQSSPFYFWMNGDRIDSLLENDRQQTHMLDVMQDHFSRASSIIDELFQDRFFTREPQDTYHYLPFSLPHRRPHFFFPKSRIVR | ~60 subunits per oligomer | 
2 | β-chain of human clusterin (β-Clu), recombinant (domain or fragment, UniProt P10909 228-449, looked up, The printed primers encode M-SLMPFSP... at the start and ...HREE-stop at the end; The NdeI site of the forward primer adds an initiator Met before S228; Not glycosylated (bacterial). cDNA came from IMR32 human neuroblastoma cells; also called β-clusterin) SLMPFSPYEPLNFHAMFQPFLEMIHEAQQAMDIHFHSPAFQHPPTEFIREGDDDRTVCREIRHNSTGCLRMKDQCDKCREILSVDCSTNNPSQAKLRRELDESLQVAERLTRKYNELLKSYQWKMLNTSSLLEQLNEQFNWVSRLANLTQGEDQYYLRVTTVASHTSDSDVPSGVTEVVVKLFDSDPITVTVPVEVSRKNPKFMETVAEKALQEYRKKHREE |  | binds
